Kd data for one substance are collected here from PMC2114528.

Where two headings read alike, the source gives them in different places.

The target of test [1] is ECGF receptor (Mr 150,000 polypeptide) on LEII cells (mouse (endogenous in LEII cells)) (UniProt P16092). The test is described as follows: radioligand binding.
Test [2] shares this target. The test is described as follows: radioligand binding. This is another data set of the same source.

Chain of UniProt P16092 (P16092 22-822): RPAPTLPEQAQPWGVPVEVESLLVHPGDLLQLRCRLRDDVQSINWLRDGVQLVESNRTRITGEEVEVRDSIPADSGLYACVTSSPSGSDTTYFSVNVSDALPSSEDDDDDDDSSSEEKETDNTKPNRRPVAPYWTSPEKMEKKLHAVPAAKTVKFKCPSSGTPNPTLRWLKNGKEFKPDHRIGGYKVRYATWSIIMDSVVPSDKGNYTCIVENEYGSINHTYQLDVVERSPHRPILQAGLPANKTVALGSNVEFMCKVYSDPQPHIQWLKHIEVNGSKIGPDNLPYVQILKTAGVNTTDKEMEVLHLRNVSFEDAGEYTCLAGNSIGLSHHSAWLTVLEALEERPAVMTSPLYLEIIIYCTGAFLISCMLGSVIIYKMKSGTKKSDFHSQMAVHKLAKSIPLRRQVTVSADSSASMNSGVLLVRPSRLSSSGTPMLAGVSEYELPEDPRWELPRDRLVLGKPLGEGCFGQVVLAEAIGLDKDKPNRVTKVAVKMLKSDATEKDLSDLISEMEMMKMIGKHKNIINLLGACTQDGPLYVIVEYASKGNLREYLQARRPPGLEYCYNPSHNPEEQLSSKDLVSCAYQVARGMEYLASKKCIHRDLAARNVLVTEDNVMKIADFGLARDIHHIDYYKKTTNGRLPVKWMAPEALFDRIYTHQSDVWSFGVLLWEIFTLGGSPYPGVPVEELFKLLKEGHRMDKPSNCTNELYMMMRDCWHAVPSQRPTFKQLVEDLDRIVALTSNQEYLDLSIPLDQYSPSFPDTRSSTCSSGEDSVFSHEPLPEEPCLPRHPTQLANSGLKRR

The term Kd denotes the equilibrium constant for the complex coming apart. For “alpha-endothelial cell growth factor (ligand)”, the Kd in test [1] was determined as 0.25 nM; in test [2], 0.2 nM.
